Test results published in article PMC7068118 (Human Molecular Genetics, 2020).

Tests used:
Assay in all cases: co-IP
[1] = biological target: Vps13^N1 (Vps13^GFP, conserved asparagine of VAB repeat 1 to alanine) (S. cerevisiae) (UniProt Q07878)
[2] = biological target: Vps13^N3 (Vps13^GFP, conserved asparagine of VAB repeat 3 to alanine) (S. cerevisiae) (UniProt Q07878)
[3] = biological target: Vps13^N4 (Vps13^GFP, conserved asparagine of VAB repeat 4 to alanine) (S. cerevisiae, UniProt Q07878 1-3144, Vps13^N4A (N2216))
[4] = biological target: Vps13^N4S (Vps13^GFP N2216S, models VPS13B N2993S) (S. cerevisiae, UniProt Q07878 1-3144, Vps13^N4S (N2216))
[5] = biological target: Vps13^N2,3,4S (Vps13^GFP, conserved asparagines of VAB repeats 2, 3 and 4 to serine) (S. cerevisiae) (UniProt Q07878)

recovery relative to WT [1]	recovery relative to WT [2]	recovery relative to WT [3]	pull-down relative to WT [4]	pull-down relative to WT [1]	recovery relative to WT [5]	Binder
24%						Ypt35-3HA (natural protein) MSDKISFLPPEPIQLLDEDSTEPELDIDSQQENEGPISASNSNDSTSHSNDCGATITRTRPRRSSSINANFSFQKAHVSDCTIVNGDHGTKFAVWRITVFLEPNLKAFAAKRESYKIQTYKRYSDFVRLRENLLTRIKTAKPEKLNCLQIPHLPPSVQWYSSWKYQEVNLNKDWLAKRQRGLEYFLNHIILNSSLVEMTKDILIQFLEPSKRVA
24%	67%	42%	77%			Mcp1-3HA (natural protein, S. cerevisiae, UniProt Q12106 1-302, looked up) MIKLHEVPPEPVDPASLPHDVNAHSPEGDGNPDKRKKIFGIPYPFSRSSCRRFLWNCQKISVLPMALYFPLHAANTLITPAVSPDSAPDDVLMMVREILPSITTKLLVAGITLHVSAGVLLRIVNNWNKPRRNRHRHLKISAEQDLSQDSIGLTGGISGYLFGLYKTFRIPPQVISGYILVPVLIYHLLIMKWVPNSISTEVDFASIKQLLSSKNRWWKWLGGLVPLAILLESGVYHIGSGLCRYFGVRKMTSRKKWSTAINLLTLVGFVSLIRLMKEDSTKLGPNQFESIFKKIRLLLHVN
				41%	42%	Spo71-3HA (natural protein) MDSIVNVVEDDVKYAQRVTSFSSPQNANVKVFTIPRHSFTAFRLSYVSPTELSACSQVTLLGGIPKQWYADQNNQVWKLLTKISLRKVRKQSDMLRRYGYGTIYKKRVGKIPTALYLRKHFTWSYEDNTSIHNGHRLKEAEMEMKRTRSSPVQKSEYKLSLPRRCRSSSDQNFMRQELLKEKKSELSRNNSLPLIDTAQAVDIHPVLHEEDQENTNKRNKSLLSNLKRKDLGESKSISRKDYSHFDRIPSPSSARSVGETDFNYNREPSEDTLRYPDSIIEVTNRTSPAPNSILSRSGQFVNSNDLSDGFSTSNTINNVGLNANEKIFFNALQSMEKENLMLWKTSQKYGTYLDERRKSADAFQKRERGSCVDIGKLHSSHLPFINILPPWPTELTEEERIIHDRLASKHSHHIRKHVHNARNKTSCKIKDSVGTFLGMTNSLTNKATVKKRTGQILKKEKMLVMVKEAIQNKVPLPNFSENECFDTRVSERWKEYIVIARSTGRFDPPILLQFYRHRHIPEIEDISSIATKYHRNPLDFFLSRNCIVKFYSSLDKTISIQKPDKRLGGFIDESIEKKDELKHYSPIKIFILRCSSIRSSGRWYKFLLESLDRQLFTPAINLKIPLTEISIKINLNEIIFQKLIDLGKQEKDRLKICFLQRGYKIFQHPILRYFTVAILEKLKLAHYDYLIRKWDTENPVLGCALKRYDRLEWIPCDEDSLVTGIFAFCQSHLIQYRPIANRLRETKSLEGKCLKEPTPIEGFLIRLTDKYGSARTNFGKYSISTAYFFTCENLLFSMKAYRANPPLPIDSMIDDTSTEIEKEEIWKQWKKIPEVYEQQPYPLDTNDHIEWMNCQTTQSEYDSRDFYAFHCFHRRIDQILKTDNVIDLTEVKDIYQGTRTDYEADKIKYGVYKEASEIFWHRNYEIDDVSRSVINIETSNGLLLKLLATSATVAEEWVIKLKQMISYWKNKQREDTERLLKIRRSNAGLLMLNGEEETKIGENTLRWIVEHGRADEQTFNANGISLSRPLIQKGPLYQKPHKHSVFSKYYVVLISGFIVLFHCFHRSTTGFAKEVLEYAHYVTIPIDDCYLYSGTTTELDLLQRDRTFDEINYGSHALPRVYGDGWRSVEDESSRCFTLWFGTRRALSSNRLQKKGNEKQYTQDYGRQDNNIDPPSAPEADLNNSNVPSNTDKIHFTKKLGVSGKSMVFMARSRQERDLWVMSIYYELERLRRTASTSNSRNQTM
